Where only a bound is given, the exact number is not on record here.

We go through two molecules from patent US20230277625A1 (SIMCHA IL 18, published 2023).

Assay [1] concerns the target T1, Human IL-18BP (amino acids 31-194), biotinylated (human, UniProt O95998 31-194, biotin on the AviTag (BirA ligase) where used biotinylated).
T1 construct: Soluble decoy receptor; also called hIL-18BP; recombinant IL-18BP
T1 sequence: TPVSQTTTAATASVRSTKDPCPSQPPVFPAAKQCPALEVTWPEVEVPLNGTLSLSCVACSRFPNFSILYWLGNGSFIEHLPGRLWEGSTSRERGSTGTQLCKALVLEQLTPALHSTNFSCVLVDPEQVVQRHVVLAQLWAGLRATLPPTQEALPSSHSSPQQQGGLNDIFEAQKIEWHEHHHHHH
Nature of the assay: SPR, immobilized biotinylated hIL-18BP, representative sensorgram FIG. 5B; representative sensorgram, FIG. 5B; single run, not the average. The protocol:
(§1) By contrast, very little binding is observed with the same variants and hIL-18BP (right).
(§2) Experiments were conducted using a Biacore T100 and carried out at 25° C. Biotinylated IL-18Rα or IL-18BP were immobilized onto a Biacore biotin capture chip (Series S CAP sensor chip, GE Healthcare) to yield an Rmax of ˜50 RU (IL-18Rα) or ˜10 RU (IL-18BP). Measurements were made with serial dilutions of the IL-18 variants in HEPES buffered Saline-P+buffer (10 mM HEPES pH 7.4, 150 mM NaCl, 0.005% surfactant P20). The surface was regenerated by three 60-sec injections of regeneration buffer (3/4 (v/v) 8M guanidine hydrochloride with 1/4 (v/v) 1M sodium hydroxide). Experiments were performed in multiple channels simultaneously for increased observations. All data were analyzed with the Biacore T100 evaluation software version 2.0 with a 1:1 Langmuir binding model.

Assay [2] concerns the target T1, Human IL-18BP (amino acids 31-194), …. Nature of the assay: SPR (Biacore T100), IL-18BP captured via biotin, IL-18 as analyte. The protocol: as §2
(§3) To additionally characterize the receptor binding activities of the DR-IL-18 variants, the cytokines were expressed recombinantly and surface plasmon resonance for IL-18Rα and IL-18BP was performed (see FIG. 5B for representative traces).

For assay [3], the target named is T2, Human IL-18Rα ectodomain (amino acids 19-329), biotinylated (human, UniProt Q13478 19-329, biotin on the AviTag (BirA ligase)).
T2 construct: range 19-329; Secreted from insect cells (gp67 signal peptide removed); also called hIL-18Rα; hIL18Rα
T2 sequence: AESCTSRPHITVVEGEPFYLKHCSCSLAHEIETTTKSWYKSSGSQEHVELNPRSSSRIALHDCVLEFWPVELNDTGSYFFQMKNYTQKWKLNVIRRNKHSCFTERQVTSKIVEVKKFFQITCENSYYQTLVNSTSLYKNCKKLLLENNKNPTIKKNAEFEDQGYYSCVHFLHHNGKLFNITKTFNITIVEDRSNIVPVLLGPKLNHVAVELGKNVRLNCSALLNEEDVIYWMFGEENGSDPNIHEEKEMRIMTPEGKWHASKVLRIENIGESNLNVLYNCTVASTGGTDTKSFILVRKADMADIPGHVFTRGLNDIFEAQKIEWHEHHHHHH
Nature of the assay: SPR; average of 2 studies.

Assay [4] deals with T1, Human IL-18BP (amino acids 31-194), …. The assay can be described thus: SPR; average of 2 studies.
Assay [5] addresses T2, Human IL-18Rα ectodomain (amino acids …). The assay can be described thus: on-yeast binding isotherm (flow cytometry), drawn summary table, IL18Rα (KD). The method, boiled down: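 Yeast displaying IL-18 variants were grown at 30 °C, then induced 1 day at 20 °C, with display checked by anti-myc-PE. Cells were stained on ice with biotinylated IL-18Rα (± IL-18Rβ) or biotinylated IL-18BP in PBS/0.5% BSA/2 mM EDTA. Binding was read by flow cytometry.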

Assay [6] addresses T1, Human IL-18BP (amino acids 31-194), …. Nature of the assay: on-yeast binding isotherms; KD for IL-18BP over KD for IL-18Rα.
For assay [7] the target is unchanged. Nature of the assay: on-yeast binding isotherm (flow cytometry), drawn summary table, column IL18BP (KD). The protocol:
(§4) Individual colonies of IL-18 yeast were grown overnight at 30° C. in SDCAA liquid media and induced in SGCAA liquid media for 1 day at 20° C. IL-18 display levels on yeast were verified by flow cytometry using an anti-cMyc tag antibody (anti-myc-PE; Cell Signaling Technologies). Receptor staining with biotinylated IL-18Rα (with or without IL-18R β) or biotinylated IL-18BP was performed in PBS supplemented with 0.5% BSA and 2 mM EDTA (PBE) on ice. All analysis was performed on a Sony SA3800 flow cytometer.

Assay [8] deals with T2, Human IL-18Rα ectodomain (amino acids …). Nature of the assay: SPR (Biacore T100), receptor captured via biotin, IL-18 as analyte. The method, then:
as §2, §3

For assay [9], the target named is T1, Human IL-18BP (amino acids 31-194), …. Nature of the assay: SPR; KD(IL-18BP)/KD(IL-18Rα) normalized to WT IL-18.
For assay [10] the target is unchanged. Nature of the assay: on-yeast binding isotherm (flow cytometry).
For assay [11] the target is unchanged. The assay can be described thus: on-yeast binding isotherms; KD ratio relative to WT IL-18.
Assay [12] shares this target. The assay can be described thus: SPR; KD for IL-18BP over KD for IL-18Rα. The protocol: as §2, §3
The target is the same in assay [13]. The assay can be described thus: on-yeast binding isotherm (flow cytometry); members per FIG. 5A legend. The protocol:
as §4, §3

For assay [14] the target is unchanged. The assay can be described thus: SPR, single-cycle injections of 1.5, 4.5, 13.5, 40.5 and 121.5 nM over immobilized biotinylated hIL-18BP; the sheet prints two constants, KD1 and KD2 (KD2 = 15.2 nM is the value in the text). The protocol:
as §1, §2

Assay [15] has the same target. The assay can be described thus: SPR; KD ratio relative to WT IL-18. The protocol: as §2, §3
The target is the same in assay [16]. The assay can be described thus: SPR; KD ratio relative to WT IL-18; SPR; ratio normalized to WT. The protocol:
as §2, §3

Assay [17] shares this target. Nature of the assay: SPR; KD for IL-18BP over KD for IL-18Rα; SPR; ratio of two measured KD. The protocol: as §2, §3
Assay [18] shares this target. The assay can be described thus: on-yeast binding isotherms; 20 µM used for NBD; yeast-displayed variant; ratio computed with 20 µM put in for NBD.
Assay [19] has the same target. Nature of the assay: SPR (Biacore T100), IL-18BP captured via biotin, IL-18 as analyte; SPR, recombinant soluble variant, biotinylated hIL-18BP on the chip. The method, then:
as §2, §3

For assay [20] the target is unchanged. Nature of the assay: on-yeast binding isotherms; KD ratio relative to WT IL-18; yeast-displayed variant; ratio normalized to WT, from the 20 µM placeholder.
Assay [21] shares this target. The assay can be described thus: SPR; average of 2 studies; SPR, average of 2 studies.

B1: SEQ ID NO: 34 (human DR-IL-18 variant hCS1) (ligand)
chain: YFGKLESKLSVIRNLNDQVLFIDQGNRPLFEDMTDSDCRDNAPRTIFIISTYKDSQPRGKAVTISVKCEKISTLSCENKIISFKEMNPPDNIKDTKSDIIFFQRDVPGHKHKMQFESSSYEGYFLACEKERDLFKLILKKEDELGDRSIMFTVQNED
notes: Engineered variant
Turning to B1, the Kd in [1] amounted to 15.2 nM; in assay [2] it was 19.4 nM; in assay [3], 8 nM; in [4], 11.8 nM; in [5], 146 nM; in assay [7], 710 nM. Also, the Kd in [8] was 8.05 nM; in assay [10], 19300 nM. Besides, the entries for the “KD ratio IL-18BP/IL-18Rα” value in assay [6] and in assay [12] were 300 and 2.41, respectively. In [9], the “IL-18 BP:Rα Dissociation Constant Ratio” value is 3020. In addition, the “Dissociation Constant Ratio normalized to WT IL-18” value was 1020 in assay [11] and 3720 in assay [15]. Further, the EC50 in assay [13] is over 1000 nM. Moreover, the “KD1 (first of two fitted dissociation constants)” value in [14] is 36.7 nM.

B2: SEQ ID NO: 37 (human DR-IL-18 variant hCS4) (ligand)
chain: RFGKLESKLSVIRNLNDQVLFIDQGNRPLFEDMTDSDCRDNAPRTIFIISTYRDSQPRGKAVTISVKCEKISTLSCENKIISFKEMNPPDNIKDTKSDIIFFQRNVPGHKYKMQFESSSYEGYFLACEKERDLFKLILKKEDELGDRSIMFTVQNED
notes: Engineered variant
In the case of B2, the “Dissociation Constant Ratio normalized to WT IL-18” value in [16] was 64500; in [20], over 424. Moreover, the “KD ratio IL-18BP/IL-18Rα” value in [17] was 41.8; in [18] it was over 125. The Kd in assay [3] was determined as 7.7 nM; in assay [19], 183 nM; in assay [8], 4.38 nM; in assay [21] it was 121 nM. The “IL-18 BP:Rα Dissociation Constant Ratio” value in assay [9] came out at 32200. Further, the EC50 in [13] was over 1000 nM.
